Data on 7 molecules can be found in publication PMC12578637, “Structure of a distinct β-barrel assembly machinery complex in the Bacteroidota” (Nature Microbiology, 2025).

B1: PgBamG, BamG of P. gingivalis ATCC 33277 (natural protein, UniProt B2RKY8 31-434, looked up)
chain: QNNNFTESPYTRFGLGRLGERTTISGHSMGGLGVGLRQGTYVNAVNPASYSAVDSMTFIFDFGASTGITWYAENGKKDNRKMGNIEYFAMLFPISKSIAMSAGVLPYSASGYQFGSVDQVEGGSVQYTRKYLGTGNLNDLYVGIGATPFKNFSIGANASFLFGRFTHSRQVIFSTEAPYNPVHLSTLYLKAAKFDFGMQYHLPLKSDRSLVIGAVYSPRVKMHSELTQIKNQVQNGVVVESETQEYIKGMDYYTLPHTLGIGFSYEKKDKLLLGADVQYSKWKGEKFYKSDCKFQDRIRVSLGGEIMPDINAVGIWPKVRYRFGLHGENSYLKVPTKGGVYQGYHIVGAVFGIGIPLNDRRSFVNVSLEYDRLIPKEGMIKENALKLTFGLTFNESWFKKLKLN
modifications: O-glycosylation (Ser85)
notes: BamG of Porphyromonas gingivalis strain ATCC 33277; source: endogenous, P. gingivalis expressing His-tagged BamH, membranes solubilised in 1% DDM
B2: BtBamI (Bt3727) (natural protein, UniProt Q8A1D9 22-493, looked up)
chain: CLDNDNEVNYSPDATIRAFELDTIGYGVNYKFTIDQVSRLIYNVDSLPVNADTIINSILIKTLTTASGIVTMKDQNDQDSIVNINDSIDLTKYVNATEKNNFLVLKVWAPNMEVQNEYKVNIRMHTMVPDSLSWGKDPIANNPVRNTAEKQKVVTLGDKILLFAQNNEIYSTAIPAGSPTDRLNYGQKWDKETTGKLPDGADVTSIIRFVDKLYLLTKNKEVYNSNDGLTWTKDEVLNSDGVSVTNLITSFSDSDGSNHKKINGIAGIVEINGEKYFSFAEKDVTWEKDIDKLTVVPAEFPINNLSADVYATESGTLNAIVVGNTEDGLDNDTATVVWASEDGKAWIPMEIPSNNNCPKLVDPSIIHYNDAFYICGKETKDDAKGFQKFYTSPTLLVWKGVDRMFMLPGILPPVKLEGGVTQHPSLHESSFKGKEVNYTMVVDRNHYIWMVGGQGIDKIWRGRVNKLGFLIQ
modifications: lipid anchor cysteine; O-glycosylation at 10 sites (Ser67 among them)
B3: BtBamK (Bt3949) (natural protein, UniProt Q8A0S2 21-214, looked up)
chain: CDDSKTYAEMLEDEKNAVNKFIKDKGIRIISQDEFEKNDTVTNLERNEYVALSDGVYMQIVDRGSAENKTDTFANNNEICVRYIEEDIMTRDTTCFNVFLEEWGDANQLYTNPAVFRYVAEGSYVYGTFIQMDYYWASYYQSTAVPAGWLLALPFVRNYAHVRLIVPSKVGHSSAQQYVNPYYYDIWTFSKALN
modifications: lipid anchor cysteine; O-glycosylation sites
B4: BtBamD (Bt0573) (natural protein, UniProt Q8AA92 18-267, looked up)
chain: CGEYNKLLKSTDYEYKYEAAKNYFAKGQYNRSATLLNELITILKGTDKAEESLYMLGMSYYNQKDYQTAAQTFITYFNTYPRGTFTELARFHAGKSLFLDTPEPRLDQSSTYQAIQQLQMFMEYFPNSTKKQEAQDMIFALQDKLVLKELYSAKLYYNLGNYLGNNYESCVITAQNALKDYPYTDYREELSILILRARHEMAIYSVEDKKMDRYRETIDEYYAFKNEFPESKYLKEAEKIFNESQKVIKD
B5: PgBamH (PGN_1735) with C-terminal 7His tag (natural protein, P. gingivalis, UniProt B2RLK9 19-455, looked up)
chain: CDDDLSPIGGSIQPPSDPVSARVDTLEFSVKTIPMGDIYNRTNYTLLGDLTDPEYGDLKADYIMQFKSPRNFKFKYPPKDGKIDSVKLSINYDSWAGDSTSIMKVSIYKINKAIPPSYYSTQELASLLDETQIIASQTFKAGNDSAFHRVRIPLPNEIGQKIYDLSVNNPSVFDTQESFYNNVLGGLYVTTTTGTGVVLSVYNTQMAIFYSYKVAADSTATASETFVNTSESYQVNHIKNSQISHLLQENDSLSCVKSPAGVMTQLTISKEQFTDAFTSNLSSSLAWQIGEAQFNISASKPSEGLMLSPPSYLLLLPQDSVRNFFEQEQTELMQPRTAFLSTIYNIKKREYRFSNISRLLMEHIKNNTEKTPEGKPYITKDLVLVLLPVKRQVAGASNSLYTSQLNNFMFPSGVKLQLGKKNKTARIGVYSMTYTDN
modifications: tri-acylated lipid anchor; O-glycosylation (7 sites)
notes: BamH (PGN_1735) of Porphyromonas gingivalis strain ATCC 33277, surface-exposed lipoprotein; 88 residues shorter than BtBamH; also called His-tagged BamH; source: C-terminally His-tagged by homologous recombination in P. gingivalis; membranes solubilised in 1% DDM; not shown: His7, C-terminal, kept
B6: PgBamK, BamK of P. gingivalis ATCC 33277 (natural protein, UniProt B2RK12 24-203, looked up)
chain: CKKSDIKSLKEMKKDERKAIESFINRMGFTIKEGHEGQSEFDPDIMYHFDNDLYMQVLDKGKEPPVLNKTKINVRMEGFMFNRERDSIYVFNSLTSGGFQESVFRYIYKYNDGDIHFELIKCTTGSNLDMFVCEGVAFPMTMLGNKARVRLIVPFRIGPESLYSRGLTGYYKEVEYVFRD
notes: BamK (peptidyl-prolyl isomerase) of Porphyromonas gingivalis strain ATCC 33277; source: endogenous, P. gingivalis expressing His-tagged BamH, membranes solubilised in 1% DDM
B7: PgBamJ, BamJ of P. gingivalis ATCC 33277 (natural protein, UniProt B2RH82 25-185, looked up)
chain: CEKRPNEEKQRRHDNEVAFNAYADSTNFKKVSVDGSTAYVYMRWITNGTGTEHPIATSRVEVHYQTYRLVGNIMVDGNYNSEKPARITLYRNEKDKSITGFRIALQNMVIGDECEFIVPWYLAYGSKGVPASSANLVPIPSYSALRFIVKLSGIIPEEDKK
notes: BamJ (peptidyl-prolyl isomerase) of Porphyromonas gingivalis strain ATCC 33277; source: endogenous, P. gingivalis expressing His-tagged BamH, membranes solubilised in 1% DDM

Test [1] has as its target T1, PgBamA, BamA of P. gingivalis ATCC 33277 (P. gingivalis (endogenous in P. …, UniProt B2RHH3 20-891)).
T1 construct: BamA of Porphyromonas gingivalis strain ATCC 33277; Periplasmic part only very weak, not modelled, possibly clipped by gingipains; EL3 (39 residues) has no density; source: endogenous, P. gingivalis expressing His-tagged BamH, membranes solubilised in 1% DDM
T1 sequence (looked up): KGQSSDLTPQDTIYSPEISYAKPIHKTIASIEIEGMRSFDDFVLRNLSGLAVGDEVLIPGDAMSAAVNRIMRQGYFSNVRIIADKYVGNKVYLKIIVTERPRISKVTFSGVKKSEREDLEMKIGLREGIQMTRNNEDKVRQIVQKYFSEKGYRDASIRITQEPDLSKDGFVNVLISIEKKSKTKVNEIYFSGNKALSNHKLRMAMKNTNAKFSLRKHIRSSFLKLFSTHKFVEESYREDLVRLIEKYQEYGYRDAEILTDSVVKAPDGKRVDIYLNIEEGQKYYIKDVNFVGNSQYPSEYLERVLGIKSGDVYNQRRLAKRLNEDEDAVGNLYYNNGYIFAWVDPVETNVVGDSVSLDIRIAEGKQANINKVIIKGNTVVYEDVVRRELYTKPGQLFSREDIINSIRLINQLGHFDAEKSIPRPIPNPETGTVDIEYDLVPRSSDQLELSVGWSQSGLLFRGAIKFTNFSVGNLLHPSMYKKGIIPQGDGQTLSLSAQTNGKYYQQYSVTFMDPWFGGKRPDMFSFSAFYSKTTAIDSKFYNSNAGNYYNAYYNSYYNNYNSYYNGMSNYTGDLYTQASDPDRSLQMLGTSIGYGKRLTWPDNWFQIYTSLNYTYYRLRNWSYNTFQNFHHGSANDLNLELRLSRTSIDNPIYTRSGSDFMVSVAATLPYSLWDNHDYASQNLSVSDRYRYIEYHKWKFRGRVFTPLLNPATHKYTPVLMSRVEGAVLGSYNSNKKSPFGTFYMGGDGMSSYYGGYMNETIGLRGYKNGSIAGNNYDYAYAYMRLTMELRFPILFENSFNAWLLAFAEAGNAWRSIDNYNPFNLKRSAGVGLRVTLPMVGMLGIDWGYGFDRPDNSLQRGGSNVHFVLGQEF
Put plainly: cryo-EM structure; PgBAM complex co-purified through C-terminally His-tagged BamH from P. gingivalis membranes, in DDM, 4.9 mg/ml; 3.24 Å class without periplasmic density; AF2 models docked and refined. As to conditions: both partners purified.

Test [2] deals with B5. The test is described as above. As to conditions: both partners purified.
Test [3] deals with T2, BtBamH (Bt4306) (B. thetaiotaomicron (endogenous in B. …, UniProt Q89ZS0 18-542, tri-acylated lipid anchor on the N-terminal cysteine)); O-glycosylation (Ser309 among the sites)).
T2 sequence (looked up): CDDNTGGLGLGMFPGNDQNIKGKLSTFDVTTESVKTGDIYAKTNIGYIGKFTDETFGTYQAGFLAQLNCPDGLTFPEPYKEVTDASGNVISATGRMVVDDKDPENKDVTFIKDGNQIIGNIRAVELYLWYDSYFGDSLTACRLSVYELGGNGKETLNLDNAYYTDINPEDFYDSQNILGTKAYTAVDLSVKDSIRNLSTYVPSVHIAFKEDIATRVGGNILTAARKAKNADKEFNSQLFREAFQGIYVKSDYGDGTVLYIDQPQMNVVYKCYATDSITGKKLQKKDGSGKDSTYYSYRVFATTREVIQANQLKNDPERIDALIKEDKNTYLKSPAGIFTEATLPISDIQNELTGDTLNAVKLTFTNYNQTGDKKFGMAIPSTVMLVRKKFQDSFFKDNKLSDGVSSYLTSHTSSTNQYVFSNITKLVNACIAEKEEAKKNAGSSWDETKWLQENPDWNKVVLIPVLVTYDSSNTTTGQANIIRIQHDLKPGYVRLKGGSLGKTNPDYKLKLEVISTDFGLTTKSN
Put plainly: cryo-EM structure; BtBAM complex co-purified through BamAhis from native membranes, in DDM, 8 mg/ml; two 3D classes (3.28 Å and 3.46 Å); AF2 models docked and refined. The conditions noted are these: both partners purified.

In test [4] the target is T3, BtBamA (Bt3725), B. thetaiotaomicron BamA with N-terminal His7 tag (B. thetaiotaomicron, UniProt Q8A1E1 20-885).
T3 sequence (looked up): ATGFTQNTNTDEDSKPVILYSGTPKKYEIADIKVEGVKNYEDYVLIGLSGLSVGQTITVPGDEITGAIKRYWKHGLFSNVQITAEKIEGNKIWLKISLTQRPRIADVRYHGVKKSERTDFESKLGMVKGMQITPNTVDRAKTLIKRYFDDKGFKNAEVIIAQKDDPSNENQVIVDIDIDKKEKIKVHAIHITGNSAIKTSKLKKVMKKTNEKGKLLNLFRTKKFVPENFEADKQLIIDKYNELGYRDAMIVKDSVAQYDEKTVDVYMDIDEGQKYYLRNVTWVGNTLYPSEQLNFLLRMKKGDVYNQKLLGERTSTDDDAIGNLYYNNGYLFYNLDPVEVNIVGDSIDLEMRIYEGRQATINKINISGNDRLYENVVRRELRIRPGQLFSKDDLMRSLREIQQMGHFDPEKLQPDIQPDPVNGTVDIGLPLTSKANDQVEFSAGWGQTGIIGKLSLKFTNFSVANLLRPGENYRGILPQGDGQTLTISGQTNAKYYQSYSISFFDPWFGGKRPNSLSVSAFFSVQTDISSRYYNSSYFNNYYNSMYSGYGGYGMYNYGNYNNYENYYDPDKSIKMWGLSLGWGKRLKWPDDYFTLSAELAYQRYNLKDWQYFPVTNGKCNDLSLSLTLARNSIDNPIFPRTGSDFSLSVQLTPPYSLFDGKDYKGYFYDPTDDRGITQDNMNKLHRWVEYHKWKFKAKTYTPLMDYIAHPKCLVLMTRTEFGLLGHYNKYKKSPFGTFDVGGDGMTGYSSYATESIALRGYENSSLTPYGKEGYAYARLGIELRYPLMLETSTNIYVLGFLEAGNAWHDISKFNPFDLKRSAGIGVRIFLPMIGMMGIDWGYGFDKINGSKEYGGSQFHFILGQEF
Description: affinity purification with mass spectrometry; chromosomally His7-tagged BamA as bait; B. thetaiotaomicron total membranes solubilised in TBS with 0.75% DDM and 0.75% DM; Ni IMAC, SEC in 10 mM HEPES-NaOH, 100 mM NaCl, 0.03% DDM pH 7.5; SDS-PAGE bands of pooled SEC peak fractions identified by peptide fingerprinting; IMAC elutions by quantitative proteomics against untagged wild-type cells. As to conditions: partners not purified.

Consider B1, for which the binding result in test [1] and in test [2] was “binds” throughout.

In the case of B2, the binding result in test [3] is recorded as “binds”.

As to B3, in test [3], the binding result is “binds”.

For the molecule B4, in test [4], the binding result is on record as “binds”.

As to B5, the binding result in test [1] is “binds”.

With B6, the binding result in test [2] is recorded as “binds”.

In the case of B7, the binding result in test [2] is recorded as “binds”.
